# Data taken from patent US20040002450A1, “Y17 - isolated molecules comprising epitopes containing sulfated moieties, antibodies to such epitopes, and uses thereof” (priority 2000, published 2004).
# B1: Y1 scFv: fully human scFv clone binding platelets and myelogenous leukemia cells; SEQ ID NO: 25, heavy chain CDR3 SEQ ID NO: 8 (protein, listed as Homo sapiens)
# scFv: MKYLLPTAAAGLLLLAAQPAMAEVQLVESGGGVVRPGGSLRLSCAASGFTFDDYGMSWVRQAPGKGLEWVSGINWNGGSTGYADSVKGRFTISRDNAKNSLYLQMNSLRAEDTAVYYCARMRAPVIWGQGTLVTVSRGGGGSGGGGSGGGGSSELTQDPAVSVALGQTVRITCQGDSLRSYYASWYQQKPGQAPVLVIYGKNNRPSGIPDRFSGSSSGNTASLTITGAQAEDEADYYCNSRDSSGNHVVFGGGTKLTVLGAAAEQKLISEEDLNGAA
# Molecular target: T1, glycocalicin (Homo sapiens, UniProt P07359)
# T1 construct: GC, amino acid 1 to amino acid 493 of GPIbα; made in house; host or cells: E. coli BL21 (DE3), total cell lysate
# Test: Western blot on natural versus E. coli recombinant glycocalicin
# Type: binding
# Experimental: The DNA fragment encoding for glycocalicin (GC, amino acid 1 to amino acid 493 of GPIbα) was cloned into an IPTG inducible prokaryotic vector cassette. E. coli (BL21 DE3) cells harboring the newly constructed plasmid were grown at 37° C. to O.D. 0.7-0.8, than at 37° C. for 3 hours for in the presence of IPTG for induction
# SDS-polyacrylamide gel loaded either with semi-purified human platelet derived glycocalicin (“GC”) or with E. coli cell lysates (“total”) derived from induced and non-induced cells were analyzed. Western blot analysis was performed with biotinylated Y1-scFv, polyclonal rabbit anti-human glycocalicin antibody, commercially available mouse anti-human CD42 monoclonal antibody (SZ2 Immunotech, PM640 Serotec, HIP 1 Pharmigen, AN51 DAKO), and polyclonal antibody against the N-terminus of GPIbα (Sc-7071, Santa Cruz).
molecule,measurement,value
B1,recognition of natural human platelet derived and bacterial recombinant glycocalicin,"recognized the natural human-derived glycocalicin, but did not recognize the bacterial derived recombinant platelet glycocalicin"
